Experimental data: the supplement of paper PMC10567573
± gives the standard deviation.

Assay: protein stability index of a GFP-peptide fusion (GPS, HEK-293T) (PSI 1-6); higher = more stable
[1] = treatment: DMSO, c terminus: a fixed tail appended
[2] = treatment: MLN4924 1 uM, 8 h, c terminus: a fixed tail appended
[3] = treatment: DMSO, c terminus: native
[4] = treatment: MLN4924 1 uM, 8 h, c terminus: native
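Further: 24-mer peptide tiles fused after GFP, lentivirally expressed, FACS-sorted into six equal bins by GFP/DsRed ratio, decoded by Illumina sequencing, PSI is the read-weighted mean bin number.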

Sequence | protein stability index [1] | protein stability index [2] | protein stability index [3] | protein stability index [4]
GTDLPLSEIPRGVRVALDYEAGQV [TRIM15] | 4.33 ± 0.25 | 4.46 ± 0.22 | – | –
LALYTPVGAAGSARQELLGDRPRW [ANKRD9] | 3.28 ± 0.27 | 2.96 ± 0.21 | – | –
AEMPHTETVSPLPSSMDLLIQDSP [NANOGP8] | 5.09 ± 0.19 | 5.32 ± 0.2 | – | –
TERLSHQITSRVVSAATQLRHFFL [RTN2] | 4.1 ± 0.17 | 4.08 ± 0.14 | – | –
GSAYLFVESSLDKVVLSDAYAHPQ [TRADD] | 2.22 ± 0.35 | 2.37 ± 0.54 | – | –
PADSAQLLSLNSLLPESGIVADIE [TFE3] | 4.93 ± 0.19 | 5.1 ± 0.19 | – | –
PPDRTLGCWATDAAPAAGLCGAGS [RSPH3] | 3.79 ± 0.15 | 3.71 ± 0.32 | – | –
GPMMKLKRHFVAQKYKKQIDHMYH [ACSBG2] | 2.1 ± 0.14 | 2.42 ± 0.37 | – | –
DETGITVASLERFSTYTSDKDENK [ZC3H15] | 5.14 ± 0.3 | 5.29 ± 0.087 | – | –
IATLRVALPSVMRFCCCVAVIYLG [MCOLN1] | 3.29 ± 0.55 | 3.15 ± 0.21 | – | –
LMSYERRQILHLITMMALKVLGEL [TENT5D] | 2.67 ± 0.24 | 2.39 ± 0.31 | – | –
NFQQPGFTSGTGHFTAMVWKNTKK [GLIPR2] | 3.74 ± 0.32 | 3.95 ± 0.067 | – | –
AEPDMDDPAYIAVLVLIFNAAKTC [INTS4] | 2.37 ± 0.47 | 2.12 ± 0.29 | – | –
HTETGEEVLRMCVAVKKKLQLYFW [VPS39] | 2.8 ± 0.85 | 2.82 ± 0.33 | – | –
SQVSMWDQRWQDHQPLLPITDVP [APBB1IP] | – | – | 2.63 ± 0.55 | 3.22 ± 0.51
ETDHLSMEEEDPMPRQISRQSSVT [TPRG1] | 5.37 ± 0.21 | 5.28 ± 0.36 | – | –
RGQVGLVPKNYVVVLSDGPALHPA [NCK2] | 2.56 ± 0.29 | 2.43 ± 0.23 | – | –
KQKTSAALSTMGTLICRKLGGVKK [TPD52L3] | 2.98 ± 0.29 | 2.83 ± 0.34 | – | –
VGVATARAPLHSVGYTALVGSDAE [SPSB4] | 4.35 ± 0.19 | 4.38 ± 0.3 | – | –
RDVAAEAVARSPKRPAWGSRRFEA [POMT2] | 3.73 ± 0.23 | 3.94 ± 0.085 | – | –
GAARLALLQGAGLDVERWLKPAMT [FCHSD1] | 2.5 ± 0.53 | 2.45 ± 0.36 | – | –
QNQNITLDCEGTTNKMKSPETKQR [KMT2E] | 5.37 ± 0.12 | 5.3 ± 0.12 | – | –

Sequence | protein stability index [1] | protein stability index [2] | protein stability index [3] | protein stability index [4]
LPLGIKVYEDETKVVHAVDGTAEN [PALM] | 5.02 ± 0.17 | 5.03 ± 0.23 | – | –
GMRRKSLLTRKVICKSDAPTGDVL [GOLPH3] | 3.51 ± 0.18 | 3.53 ± 0.52 | – | –
HVFSELWDLSEAWMQANYDPLSDS [ELOA2] | 2.6 ± 0.32 | 2.63 ± 0.31 | – | –
LHKQVLMGPYNPDTCPEVGFFDVL [ACBD3] | 2.4 ± 0.31 | 2.18 ± 0.21 | – | –
ASAEAPGDSGERSEGEAMEICSEP [ZNF511] | 5.54 ± 0.21 | 5.47 ± 0.29 | – | –
LVGDRDVGKSEILESLQDGAAESP [RAB40A] | 5.57 ± 0.17 | 5.48 ± 0.21 | – | –
TFGNSTLALGPGESLPHRLSCLGQ [PLAGL1] | 3.19 ± 0.18 | 3.29 ± 0.18 | – | –
IEPYITNFFNQVLMLGKTSISDLS [PDS5B] | 3.01 ± 0.42 | 2.91 ± 0.45 | – | –
QVLNAIEAYTEHRPEITSRAINLL [ZER1] | 2.56 ± 0.27 | 2.66 ± 0.32 | – | –
ERHSDLPPLNPTSWWADLRALARN [SPNS1] | 3.34 ± 0.5 | 3.34 ± 0.38 | – | –
ILSACSPYFRAMFTGELAESRQTE [KLHL20] | 2.06 ± 0.086 | 2.48 ± 0.33 | – | –
RHLRSAHRRELESSGAGSSPPAAP [ZBED3] | 5.09 ± 0.36 | 5.1 ± 0.28 | – | –
SGGSGGRGTGQLNRFVQLSGRPHL [KLHDC10] | 3.48 ± 0.28 | 3.65 ± 0.16 | – | –
TFGDHHKDRRFAYGRSDVVVLCFS [RHOBTB1] | 2.38 ± 0.53 | 2.43 ± 0.55 | – | –
FYTAITKKIFKSHLKSSRNSTSVK [P2RY14] | 2.18 ± 0.33 | 2.32 ± 0.55 | – | –
LSDSGAFRRSLHDPDGLVATYISE [APMAP] | 4.12 ± 0.2 | 4.02 ± 0.23 | – | –
MDEEKLKQLNCVEISALNGNRINV [DLC1] | 3.6 ± 0.34 | 3.67 ± 0.3 | – | –
RLRKHQHVGDFARDLAARWKKLVL [ELOA2] | 2.23 ± 0.61 | 2.54 ± 0.9 | – | –
LTGTESPFDLEQQWQDLMSIMEMQ [NFE2L1] | 3.95 ± 0.23 | 3.88 ± 0.47 | – | –
FPVSVTQQSPAAVSMETYHVTLTL [C2CD2L] | 3.29 ± 0.38 | 2.9 ± 0.36 | – | –
QAQPGEATSGPPGIQPGQEPPVTM [PALM] | 5.6 ± 0.19 | 5.33 ± 0.24 | – | –
HPVTIGGKIVGSLCAIAGVLTIAL [KCNA3] | 2.6 ± 0.42 | 2.05 ± 0.28 | – | –

Sequence | protein stability index [1] | protein stability index [2] | protein stability index [3] | protein stability index [4]
KLTREVLSLFVQKLGNLMSLDISG [ZER1] | 2.86 ± 0.81 | 2.56 ± 0.46 | – | –
RGRFGELLLLLPTLQSITWQMIEQ [HNF4A] | 2.94 ± 0.28 | 3.33 ± 0.3 | – | –
RNTHKDLLRFAQVFSQMIHLNETV [FEM1B] | 2.74 ± 0.7 | 2.34 ± 0.48 | – | –
IEELCQKREELCRQIQEEEDEKQR [SSNA1] | 5.43 ± 0.1 | 5.52 ± 0.12 | – | –
HDQCKCENLIMFQNLANEEVRKLT [MATN2] | 3.13 ± 0.25 | 3.58 ± 0.28 | – | –
PKRMPSGRGGRDRFTAESYTVLGD [FSD1] | 4.11 ± 0.33 | 4.3 ± 0.22 | – | –
LTPHIVQYQANKVTHTLTMRQRIS [PPEF2] | 2.89 ± 0.28 | 3 ± 0.17 | – | –
VTNHNIRLFEDVRSWMFRRGPLNS [TRIM43] | 2.56 ± 0.45 | 2.49 ± 0.18 | – | –
LHYAAMHGRARIARLMLESEYRSD [ASB7] | 2.73 ± 0.19 | 2.77 ± 0.28 | – | –
ADGGGAPPQGGCGGGGCDRYEPLP [KCNA3] | 4.54 ± 0.32 | 4.75 ± 0.16 | – | –
PETFWIQRAPQLPTWWPLPTQVPA [SPAG8] | 2.42 ± 0.19 | 2.52 ± 0.15 | – | –
LMFFIMAAMLSMVKYNSCADRPFS [POMT2] | 3.19 ± 0.7 | 3.06 ± 0.32 | – | –
EDPVPGMLFFLPPGQHLSDYSQLN [FBXO34] | 3.03 ± 0.35 | 3.11 ± 0.38 | – | –
IETLIRDMLLSGSSFNWPYMAIQ [NR2F2] | – | – | 3.02 ± 1.2 | 2.64 ± 0.41
TLKIRNSNFYTVAVTSLSSQIQYM [TMEM106C] | 2.23 ± 0.37 | 2.13 ± 0.36 | – | –
QEFSDVERAIETLIKNFHQYSVEG [S100A14] | 2.33 ± 0.33 | 2.59 ± 0.43 | – | –
DQLRSGSPPKSPRTTVHDKSAHQT [DNAJC4] | 5.26 ± 0.25 | 5.4 ± 0.14 | – | –
RLVAPTEGSLEWDILEVKRLLDHQ [WDR41] | 2.67 ± 0.46 | 2.77 ± 0.29 | – | –
SRAGGPTTPLSPTRLSRLQEKEEL [LMNB1] | 5.15 ± 0.37 | 5.36 ± 0.15 | – | –
WSECSRTCGEGYQFRVVRCWKMLS [ADAMTSL2] | 3.1 ± 1.8 | 2.19 ± 0.34 | – | –
EEEQDILQRLRENAAHLGDKRRDL [TRIM39] | 5.06 ± 0.26 | 4.97 ± 0.059 | – | –
